Literature values as cited in PMC9265785.

Target: Pex5 (Saccharomyces cerevisiae) (UniProt P35056)
Chain of UniProt P35056 (P35056 whole entry): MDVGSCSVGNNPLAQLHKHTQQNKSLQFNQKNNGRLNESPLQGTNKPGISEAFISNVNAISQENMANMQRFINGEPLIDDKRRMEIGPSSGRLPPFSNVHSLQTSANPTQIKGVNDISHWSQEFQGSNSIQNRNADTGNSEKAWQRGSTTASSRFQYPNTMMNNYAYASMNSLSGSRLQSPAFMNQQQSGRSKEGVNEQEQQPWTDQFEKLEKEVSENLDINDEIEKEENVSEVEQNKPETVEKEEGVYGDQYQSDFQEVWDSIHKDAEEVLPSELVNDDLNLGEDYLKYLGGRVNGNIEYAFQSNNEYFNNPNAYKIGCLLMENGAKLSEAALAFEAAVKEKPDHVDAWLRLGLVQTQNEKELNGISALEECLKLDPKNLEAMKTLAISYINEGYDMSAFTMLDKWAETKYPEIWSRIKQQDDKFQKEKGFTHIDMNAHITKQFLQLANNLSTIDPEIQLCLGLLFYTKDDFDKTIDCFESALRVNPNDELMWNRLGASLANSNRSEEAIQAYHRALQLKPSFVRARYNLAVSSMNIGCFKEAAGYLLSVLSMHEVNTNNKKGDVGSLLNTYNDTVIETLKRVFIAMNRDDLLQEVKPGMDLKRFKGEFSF

- Kd: 1000 nM
Substance: Pex1 (from UniProt P24004)
